This assay concerns the target human parathyroid hormone type 1 receptor (hPTHR) (human) (UniProt Q03431). As to the kind of experiment: radioligand binding.
UniProt Q03431, sequence (Q03431 27-593): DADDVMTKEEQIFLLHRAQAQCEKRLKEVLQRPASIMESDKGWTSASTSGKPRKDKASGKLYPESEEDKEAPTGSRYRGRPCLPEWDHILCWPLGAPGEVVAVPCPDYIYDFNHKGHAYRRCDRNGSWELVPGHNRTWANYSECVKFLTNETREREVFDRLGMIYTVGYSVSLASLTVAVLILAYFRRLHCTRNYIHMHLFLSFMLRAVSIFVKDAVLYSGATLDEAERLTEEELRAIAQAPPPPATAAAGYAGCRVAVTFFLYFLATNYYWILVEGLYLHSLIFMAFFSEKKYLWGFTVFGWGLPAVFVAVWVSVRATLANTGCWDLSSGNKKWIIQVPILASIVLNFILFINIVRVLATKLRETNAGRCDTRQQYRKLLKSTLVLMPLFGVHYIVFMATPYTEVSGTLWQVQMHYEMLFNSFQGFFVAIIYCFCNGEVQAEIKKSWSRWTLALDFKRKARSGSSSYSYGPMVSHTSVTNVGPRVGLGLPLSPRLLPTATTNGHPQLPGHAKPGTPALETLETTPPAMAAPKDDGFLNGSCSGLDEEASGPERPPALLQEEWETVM

Turning to M-PTH(1-15) (peptide), the pKi was determined as 10.8.

PTH(1-34) (peptide) yielded a negative logarithm of the Ki (pKi) of 8.26.

Source of the values: paper PMC8891041.
